From the supplement of paper PMC6757056
± gives the standard deviation of the averaged measurements.

B1: library; a variant is named by its letters at N, in order (parent)
chain: GCUGUCACCGGUGCUUGGUACGUUAUAUUCAGCCGGUCUGAUGAGUCUNNNNNNAGACGAAACAGC

Columns and labels:
(6R,S)-folinic acid [1] = variants of: B1; assay: normalized RNA/DNA level without ligand (relative to sTRSVctl = 100) (log10 (% of sTRSVctl)); HEK293T overexpressing SLC46A1; higher = less ribozyme self-cleavage, higher mRNA level; conditions: without (6R,S)-folinic acid; ligand present: no
In short: (§1)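 RNA level was computed as RNA reads over DNA reads divided by a spiked-in non-cleaving sequence or by the top sequences, then scaled and log-transformed. Scaling was ×100 with log10, the top group was 25 sequences, and the threshold was ≥100 DNA reads. The reads came from HEK293T cells transfected at 4 µg per 6-well well with ribozyme switch library plasmids (mCherry, or eGFP in some ligand experiments). Total RNA was extracted with EDTA 72 h after transfection, with any ligand added 1 h before it.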

(6R,S)-folinic acid [2] = variants of: B1; assay: normalized RNA/DNA level with ligand (relative to sTRSVctl = 100) (log10 (% of sTRSVctl)); HEK293T overexpressing SLC46A1; ligand concentration (+) RNA-Seq: 6 mM; higher = less ribozyme self-cleavage, higher mRNA level; conditions: with (6R,S)-folinic acid; ligand present: yes
In short: as §1

Row | Variant | normalized RNA/DNA level without ligand (log10) ((6R,S)-folinic acid [1]) | normalized RNA/DNA level with ligand (log10) ((6R,S)-folinic acid [2])
1 | GCUGUCACCGGUGCUUGGUACGUUAUAUUCAGCCGGUCUGAUGAGUCUCCAUAAAGACGAAACAGC [CCAUAA] | 1.98 ± 0.023 | 1.97 ± 0.027
2 | GCUGUCACCGGUGCUUGGUACGUUAUAUUCAGCCGGUCUGAUGAGUCUCCAUACAGACGAAACAGC [CCAUAC] | 1.991 ± 0.012 | 1.96 ± 0.059
3 | GCUGUCACCGGUGCUUGGUACGUUAUAUUCAGCCGGUCUGAUGAGUCUCCAGCUAGACGAAACAGC [CCAGCU] | 2.087 ± 0.018 | 2.036 ± 0.013
4 | GCUGUCACCGGUGCUUGGUACGUUAUAUUCAGCCGGUCUGAUGAGUCUCCAGCGAGACGAAACAGC [CCAGCG] | 1.97 ± 0.025 | 1.99 ± 0.027
5 | GCUGUCACCGGUGCUUGGUACGUUAUAUUCAGCCGGUCUGAUGAGUCUCCAGCAAGACGAAACAGC [CCAGCA] | 2.01 ± 0.031 | 1.985 ± 0.0059
6 | GCUGUCACCGGUGCUUGGUACGUUAUAUUCAGCCGGUCUGAUGAGUCUACAGGAAGACGAAACAGC [ACAGGA] | 1.948 ± 0.011 | 2.03 ± 0.037
7 | GCUGUCACCGGUGCUUGGUACGUUAUAUUCAGCCGGUCUGAUGAGUCUACAGGCAGACGAAACAGC [ACAGGC] | 2.03 ± 0.021 | 2.01 ± 0.032
8 | GCUGUCACCGGUGCUUGGUACGUUAUAUUCAGCCGGUCUGAUGAGUCUGCAGAGAGACGAAACAGC [GCAGAG] | 1.808 ± 0.01 | 2 ± 0.074
9 | GCUGUCACCGGUGCUUGGUACGUUAUAUUCAGCCGGUCUGAUGAGUCUGCAGACAGACGAAACAGC [GCAGAC] | 1.98 ± 0.037 | 2.02 ± 0.022
10 | GCUGUCACCGGUGCUUGGUACGUUAUAUUCAGCCGGUCUGAUGAGUCUCCAGUAAGACGAAACAGC [CCAGUA] | 2.027 ± 0.0027 | 2.05 ± 0.044
11 | GCUGUCACCGGUGCUUGGUACGUUAUAUUCAGCCGGUCUGAUGAGUCUCCAGUUAGACGAAACAGC [CCAGUU] | 2.019 ± 0.013 | 2.02 ± 0.05
12 | GCUGUCACCGGUGCUUGGUACGUUAUAUUCAGCCGGUCUGAUGAGUCUCCAGUCAGACGAAACAGC [CCAGUC] | 2.06 ± 0.0079 | 2.0299 ± 0.00081
13 | GCUGUCACCGGUGCUUGGUACGUUAUAUUCAGCCGGUCUGAUGAGUCUUCAGGCAGACGAAACAGC [UCAGGC] | 2.031 ± 0.003 | 2.03 ± 0.057
14 | GCUGUCACCGGUGCUUGGUACGUUAUAUUCAGCCGGUCUGAUGAGUCUUCAGUGAGACGAAACAGC [UCAGUG] | 1.78 ± 0.018 | 1.972 ± 0.011
15 | GCUGUCACCGGUGCUUGGUACGUUAUAUUCAGCCGGUCUGAUGAGUCUUCAGUAAGACGAAACAGC [UCAGUA] | 1.98 ± 0.021 | 2 ± 0.046
16 | GCUGUCACCGGUGCUUGGUACGUUAUAUUCAGCCGGUCUGAUGAGUCUUCAGUUAGACGAAACAGC [UCAGUU] | 2.008 ± 0.02 | 2 ± 0.049
17 | GCUGUCACCGGUGCUUGGUACGUUAUAUUCAGCCGGUCUGAUGAGUCUGCAGCAAGACGAAACAGC [GCAGCA] | 2.048 ± 0.018 | 2.06 ± 0.037
18 | GCUGUCACCGGUGCUUGGUACGUUAUAUUCAGCCGGUCUGAUGAGUCUGCAGCUAGACGAAACAGC [GCAGCU] | 2.03 ± 0.029 | 2.02 ± 0.045
19 | GCUGUCACCGGUGCUUGGUACGUUAUAUUCAGCCGGUCUGAUGAGUCUGCAGCCAGACGAAACAGC [GCAGCC] | 2 ± 0.024 | 2.02 ± 0.025
20 | GCUGUCACCGGUGCUUGGUACGUUAUAUUCAGCCGGUCUGAUGAGUCUCCAGACAGACGAAACAGC [CCAGAC] | 1.99 ± 0.023 | 1.98 ± 0.051
21 | GCUGUCACCGGUGCUUGGUACGUUAUAUUCAGCCGGUCUGAUGAGUCUCCAGAGAGACGAAACAGC [CCAGAG] | 1.909 ± 0.013 | 2.014 ± 0.019

Row | Variant | normalized RNA/DNA level without ligand (log10) ((6R,S)-folinic acid [1]) | normalized RNA/DNA level with ligand (log10) ((6R,S)-folinic acid [2])
22 | GCUGUCACCGGUGCUUGGUACGUUAUAUUCAGCCGGUCUGAUGAGUCUACAGUAAGACGAAACAGC [ACAGUA] | 1.947 ± 0.0079 | 1.99 ± 0.043
23 | GCUGUCACCGGUGCUUGGUACGUUAUAUUCAGCCGGUCUGAUGAGUCUACAGUCAGACGAAACAGC [ACAGUC] | 2.0723 ± 0.0011 | 2.054 ± 0.0027
24 | GCUGUCACCGGUGCUUGGUACGUUAUAUUCAGCCGGUCUGAUGAGUCUACAGUUAGACGAAACAGC [ACAGUU] | 2 ± 0.012 | 2.01 ± 0.046
25 | GCUGUCACCGGUGCUUGGUACGUUAUAUUCAGCCGGUCUGAUGAGUCUACAGCCAGACGAAACAGC [ACAGCC] | 2.03 ± 0.0033 | 2.04 ± 0.045
26 | GCUGUCACCGGUGCUUGGUACGUUAUAUUCAGCCGGUCUGAUGAGUCUACAGCUAGACGAAACAGC [ACAGCU] | 2.06 ± 0.024 | 2.059 ± 0.004
27 | GCUGUCACCGGUGCUUGGUACGUUAUAUUCAGCCGGUCUGAUGAGUCUGCAGUCAGACGAAACAGC [GCAGUC] | 2.046 ± 0.0028 | 2.05 ± 0.048
28 | GCUGUCACCGGUGCUUGGUACGUUAUAUUCAGCCGGUCUGAUGAGUCUGCAGUUAGACGAAACAGC [GCAGUU] | 2.03 ± 0.0047 | 2.04 ± 0.053
29 | GCUGUCACCGGUGCUUGGUACGUUAUAUUCAGCCGGUCUGAUGAGUCUGCAGUGAGACGAAACAGC [GCAGUG] | 1.9 ± 0.021 | 2.02 ± 0.038
30 | GCUGUCACCGGUGCUUGGUACGUUAUAUUCAGCCGGUCUGAUGAGUCUCCAGGUAGACGAAACAGC [CCAGGU] | 2.026 ± 0.0082 | 2.05 ± 0.033
31 | GCUGUCACCGGUGCUUGGUACGUUAUAUUCAGCCGGUCUGAUGAGUCUCCAGGCAGACGAAACAGC [CCAGGC] | 2.094 ± 0.018 | 2.05 ± 0.026
32 | GCUGUCACCGGUGCUUGGUACGUUAUAUUCAGCCGGUCUGAUGAGUCUCCAGGAAGACGAAACAGC [CCAGGA] | 1.993 ± 0.00019 | 1.98 ± 0.036
33 | GCUGUCACCGGUGCUUGGUACGUUAUAUUCAGCCGGUCUGAUGAGUCUCCAGGGAGACGAAACAGC [CCAGGG] | 1.99 ± 0.021 | 2.038 ± 0.018
34 | GCUGUCACCGGUGCUUGGUACGUUAUAUUCAGCCGGUCUGAUGAGUCUGCAGGUAGACGAAACAGC [GCAGGU] | 1.934 ± 0.012 | 1.99 ± 0.03
35 | GCUGUCACCGGUGCUUGGUACGUUAUAUUCAGCCGGUCUGAUGAGUCUGCAGGCAGACGAAACAGC [GCAGGC] | 1.882 ± 0.0089 | 1.86 ± 0.042
36 | GCUGUCACCGGUGCUUGGUACGUUAUAUUCAGCCGGUCUGAUGAGUCUUCAGCUAGACGAAACAGC [UCAGCU] | 2.046 ± 0.011 | 2.032 ± 0.0099
37 | GCUGUCACCGGUGCUUGGUACGUUAUAUUCAGCCGGUCUGAUGAGUCUUCAGCAAGACGAAACAGC [UCAGCA] | 2.032 ± 0.016 | 2.062 ± 0.02
38 | GCUGUCACCGGUGCUUGGUACGUUAUAUUCAGCCGGUCUGAUGAGUCUUCAGCCAGACGAAACAGC [UCAGCC] | 2.044 ± 0.0032 | 1.99 ± 0.039
39 | GCUGUCACCGGUGCUUGGUACGUUAUAUUCAGCCGGUCUGAUGAGUCUUCAGAGAGACGAAACAGC [UCAGAG] | 1.75 ± 0.026 | 1.98 ± 0.0089
40 | GCUGUCACCGGUGCUUGGUACGUUAUAUUCAGCCGGUCUGAUGAGUCUUCAGAAAGACGAAACAGC [UCAGAA] | 1.9353 ± 0.0018 | 2.017 ± 0.013
41 | GCUGUCACCGGUGCUUGGUACGUUAUAUUCAGCCGGUCUGAUGAGUCUUCAGACAGACGAAACAGC [UCAGAC] | 2.046 ± 0.0027 | 1.997 ± 0.016
